Reference: PMC7491320, “Pdc2/Pat1 increases the range of decay factors and RNA bound by the Lsm1–7 complex” (RNA, 2019)

Experiments:
[1] = molecular target: the molecule itself; assay: AUC; sedimentation velocity, 9.3 µM PatMC/Lsm1–7 without RNA, 250 mM NaCl, 20 mM HEPES pH 7.0, 1 mM DTT, 22°C, 30,000 rpm, 10–12 h
[2] = molecular target: the molecule itself; assay: AUC; sedimentation velocity, 9.3 µM PatMC/Lsm1–7 with stoichiometric A15 RNA, 250 mM NaCl, 20 mM HEPES pH 7.0, 1 mM DTT, 22°C, 30,000 rpm, 10–12 h

B1: PatMC/Lsm1–7 complex (complex)
chain 1: LDEKRQKLERDHMLMAQCAGLMTRSDKSFIARIQISQLMSEDPESDDFYYRVYSIIRGRKPSEEEASHFIQTYLGPSNNRRRGRRSENPMQKLQQQLQRLVSSAKERPKATQLSLEGALGKIAVNTVRTPRQLLNVKRPTEPASSNSSLNNFSGFSTKKDVLHAIEKVYDLLLDFEQALRKASTLETTDQEQIDTWKTTLSEKLESIWKALYINESLEASSKTRPPFISIISHPKGMRLLPRLFPHLSKEQQISILKVVVYNFDSLDIVLRGTFDVNGELPLDVVSEMSSFTQFIIPPLLTIVNELDLETINNLFSQLLNRTNAVYLIQTKIGLSFLTLFISRAEILKQSGTVNQNEKEEWENTFNVMFNRVKGHFSTVFPPPNARAYADESYPWEFLAACATAASSEQHFTLVSETRDRVLDNIITSKRAPSEIAVVRISNVNLFLNAMGLDARQLSA
chain 2: MNQATQIIPFTTSGSLVDYVDRKVIVVLRDGKKLIGILRSFDQFANLMLQYTIERIYVDDMYGDIDRGVYIVRGENVVLLGELDLDKEYDAVKQLRRMPAEELYPLAKLHEEEKKKNIREKGKYLHSVGFSVDGGHDDLY
chain 3: MLFYSFFKTLIDTEVTVELKNDMSIRGILKSVDQFLNVKLENISVVDASKYPHMAAVKDLFIRGSVVRYVHMSSAYVDTILLADACRRDLANNKRQ
chain 4: not shown
chain 5: MLPLTLLNATQGRPILVELKNGETFNGHLENCDNYMNLTLREVIRTMPDGDKFFRLPECYIRGNNIKYLRIQDEVLSQVAKQQAQQRENRGSRFRGRGQRGRGNYGHTAPNRRGRGRGGHM
chain 6: not shown
chain 7: MDSSPNEFLNKVIGKKVLIRLSSGVDYKGILSCLDGYMNLALERTEEYVNGKKTNVYGDAFIRGNNVLYVSALDD
chain 8: MSSLQKRPGPGNSSQPTERPRKESILDLSRYQDQRIQATFTGGRQITGILKGFDQLMNLVLDDVEEQLRNPEDGKLTGAIRKLGLVVVRGTTLVLIAPMDGSEEIPNPFVQAE
notes: Pat1 (Pdc2) of S. pombe, middle and carboxy-terminal domains (PatMC), residues 296-754, codon optimized; Lsm1 of S. pombe, from a polycistron with all seven Lsm proteins; Lsm2 of S. pombe, from the polycistron; Lsm3 of S. pombe, from the polycistron; Lsm4 of S. pombe, from the polycistron; Lsm5 of S. pombe, from the polycistron; Lsm6 of S. pombe, from the polycistron; Lsm7 of S. pombe, from the …
- stoichiometry N [1]: 2
- stoichiometry N [2]: 4
